What was measured:
[1] = biological target: T1, 人Claudin18.1 (human Claudin18.1) (human, UniProt P56856 1-261); assay: flow cytometry (FACS) on Claudin18.1-positive HEK293 cells, FITC goat anti-human IgG
T1 construct: whole, on cells; also called CLD18.1; 密蛋白18.1

[2] = biological target: T2, 人Claudin18.2蛋白 (human Claudin18.2) (human, UniProt P56856-2 1-261); assay: flow cytometry (FACS) on Claudin18.2-positive HEK293 cells, 0.1-10 μg/mL, FITC goat anti-human IgG
T2 construct: whole, on cells; also called CLD18.2; 密蛋白18.2

Row | binding result [1] | binding result [2] | Binder
1 | no binding (tested: 0.1-10 μg/mL tested) | binds | HDR002C04 (antibody, human IgG1, lambda, V domains shown, also called 抗体HDR002C04; 抗Claudin18.2抗体) VH: QVQLVQSGAEVKKPGASVKVSCKASGYTFTSYYMHWVRQAPGQGLEWMGIINPSGGSTSYAQKFQGRVTMTRDTSTSTVYMELSSLRSEDTAVYYCAKGSVDTAMVPGVDYWGQGTLVTVSS VL: not shown
2 | no binding (tested: 0.1-10 μg/mL tested) | binds | HDR002C06 (antibody, human IgG1, kappa, V domains shown, also called 抗体HDR002C06; 抗Claudin18.2抗体) VH: QVQLQESGPGLVKPSQTLSLTCTVSGGSISSGGYYWSWIRQHPGKGLEWIGYIYYSGSTYYNPSLKSRVTISVDTSKNQFSLKLSSVTPDDTAKYYCARIVASVGGVDVWGQGTTVTVSS VL: DIQLTQSPSSVSASVGDRVTITCRASQGISSWLAWYQQKPGKAPKLLIYAASSLQSGVPSRFSGSGSGTDFTLTISSLQPEDFATYYCQQANSFPLTFGGGTKVEIKR
